Target: actin filament (skeletal muscle alpha-actin) (Oryctolagus cuniculus, UniProt P68135)
Experiment: co-sedimentation

Kd | Binder
3.4 µM | GFP-Rng2CHD CHD (protein, GFP fused to Rng2CHD N-terminus, phalloidin-stabilized actin filaments) MDVNVGLSRLQSQAGAPVGTKGSNTRLAAKQRETLQAYDYLCRVDEAKKWIEECLGTDLGPTSTFEQSLRNGVVLALLVQKFQPDKLIKIFYSNELQFRHSDNINKFLDFIHGIGLPEIFHFELTDIYEGKNLPKVIYCIHALSYFLSMQDLAPPLIKSDENLSFTDEDVSIIVRRLRQSNVILPNFKA
0.92 µM | Rng2CHD CHD (protein, phalloidin-stabilized actin filaments) MDVNVGLSRLQSQAGAPVGTKGSNTRLAAKQRETLQAYDYLCRVDEAKKWIEECLGTDLGPTSTFEQSLRNGVVLALLVQKFQPDKLIKIFYSNELQFRHSDNINKFLDFIHGIGLPEIFHFELTDIYEGKNLPKVIYCIHALSYFLSMQDLAPPLIKSDENLSFTDEDVSIIVRRLRQSNVILPNFKA

From article PMC9610768 (2022)
